One molecule from US20100143365A1 can be followed below.

Assay [1] addresses human fibrillar Aβ42 (human) (UniProt P05067). The assay can be described thus: ELISA, Aβ fibrils. In general terms: ELISA stands for enzyme-linked immunosorbent assay.
Assay [2] deals with lysozyme Gallus gallus fibrils (Gallus gallus) (UniProt P00698). Kind of assay: ELISA, lysozyme fibrils.
UniProt P00698, sequence (P00698 other isoform, or with tags, fused parts or gaps limits assumed): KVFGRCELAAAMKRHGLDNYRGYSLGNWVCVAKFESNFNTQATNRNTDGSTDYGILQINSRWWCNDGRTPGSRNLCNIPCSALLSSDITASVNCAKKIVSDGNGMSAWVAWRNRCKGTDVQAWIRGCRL

UniProt P05067, sequence (P05067 672-713 limits assumed): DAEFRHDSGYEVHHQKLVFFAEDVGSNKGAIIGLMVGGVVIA

B1: scFv21 (anti-amyloid scFv designated Pan 21′) (scFv)
scFv: DKLMAEVQLLESGGGLVQPGGSLRLSCAASGFTFSSYAMSWVRQAPGKGLEWVSSIQKSGEKTHYADSVKGRFTISRDNSKNTLYLQMNSLRAEDTAVYYCAKKRTLFDYWGQGTLVTVSSGGGGSGGGGSGGGGSTDIQMTQSPSSLSASVGDRVTITCRASQSISSYLNWYQQKPGKAPKLLIYRASYLQSGVPSRFSGSGSGTDFTLTISSLQPEDFATYYCQQSYSLPTTFGQGTKVEIKRAAAHHHHHHGAAEQKLISEEDLN
As for B1, the OD Values in assay [1] came to 0.011 OD; in assay [2] it was 0.095 OD.
